Experimental data reported in patent US20180016346A1 (Kyowa Kirin, published 2018).

B1: hTRAILR2-hPSMA bispecific antibody E11-CH1-PI118VH antibody (bispecific antibody, IgG4)
heavy: not shown
VL: EIVLTQSPATLSLSPGERATLSCRASQSVSSFLAWYQQKPGQAPRLLIYDASNRATGIPARFSGSGSGTDFTLTISSLEPEDFAVYYCQQRSNWPLTFGPGTKVDIKR
notes: domain: constant region; The heavy chain is E11 VH, an IgG4 CH1 linker and PI118 VH, followed by the constant region of the vector; All four light chains carry E11 VL
B2: hTRAILR2-hPSMA bispecific antibody E11-CH1-PI127VH antibody (bispecific antibody, IgG4)
heavy: not shown
VL: EIVLTQSPATLSLSPGERATLSCRASQSVSSFLAWYQQKPGQAPRLLIYDASNRATGIPARFSGSGSGTDFTLTISSLEPEDFAVYYCQQRSNWPLTFGPGTKVDIKR
notes: domain: constant region; The heavy chain is E11 VH, an IgG4 CH1 linker and PI127 VH, followed by the constant region of the vector; All four light chains carry E11 VL
B3: hTRAILR2-hPSMA bispecific antibody E11-CH1-PL223VH antibody (bispecific antibody, IgG4)
heavy: not shown
VL: EIVLTQSPATLSLSPGERATLSCRASQSVSSFLAWYQQKPGQAPRLLIYDASNRATGIPARFSGSGSGTDFTLTISSLEPEDFAVYYCQQRSNWPLTFGPGTKVDIKR
notes: domain: constant region; The heavy chain is E11 VH, an IgG4 CH1 linker and PL223 VH, followed by the constant region of the vector; All four light chains carry E11 VL; also called E11-CHI-PL223VH
B4: hTRAILR2-hPSMA bispecific antibody E11-CH1-PI115VH antibody (bispecific antibody, IgG4)
heavy: not shown
VL: EIVLTQSPATLSLSPGERATLSCRASQSVSSFLAWYQQKPGQAPRLLIYDASNRATGIPARFSGSGSGTDFTLTISSLEPEDFAVYYCQQRSNWPLTFGPGTKVDIKR
notes: domain: constant region; The heavy chain is E11 VH, an IgG4 CH1 linker and PI115 VH, followed by the constant region of the vector; All four light chains carry E11 VL
B5: hTRAILR2-hPSMA bispecific antibody E11-CH1-PI108VH antibody (bispecific antibody, IgG4)
heavy: not shown
VL: EIVLTQSPATLSLSPGERATLSCRASQSVSSFLAWYQQKPGQAPRLLIYDASNRATGIPARFSGSGSGTDFTLTISSLEPEDFAVYYCQQRSNWPLTFGPGTKVDIKR
notes: domain: constant region; The heavy chain is E11 VH, an IgG4 CH1 linker and PI108 VH, followed by the constant region of the vector; All four light chains carry E11 VL
B6: hTRAILR2-hPSMA bispecific antibody E11-CH1-PI143VH antibody (bispecific antibody, IgG4)
heavy: not shown
VL: EIVLTQSPATLSLSPGERATLSCRASQSVSSFLAWYQQKPGQAPRLLIYDASNRATGIPARFSGSGSGTDFTLTISSLEPEDFAVYYCQQRSNWPLTFGPGTKVDIKR
notes: domain: constant region; The heavy chain is E11 VH, an IgG4 CH1 linker and PI143 VH, followed by the constant region of the vector; All four light chains carry E11 VL
B7: hTRAILR2-hPSMA bispecific antibody E11-ML-PI101VH antibody (bispecific antibody, IgM)
heavy: not shown
VL: EIVLTQSPATLSLSPGERATLSCRASQSVSSFLAWYQQKPGQAPRLLIYDASNRATGIPARFSGSGSGTDFTLTISSLEPEDFAVYYCQQRSNWPLTFGPGTKVDIKR
notes: domain: constant region; All four light chains carry E11 VL
B8: PI134 phage clone (scFv displayed on M13 phage) (scFv, V domains shown)
VH: QVQLVQSGAEVKKPGASVKVSCKASGYTFTTYDINWVRQATGQGLEWMGWMNPNNGYTGYAQKFQGRVTMTRNTSISTAYMELSSLRSEDTAVYYCARTNWVYWYFDLWGRGTLVTVSS
VL: EIVLTQSPATLSLSPGERATLSCRASQSVSSFLAWYQQKPGQAPRLLIYDASNRATGIPARFSGSGSGTDFTLTISSLEPEDFAVYYCQQRSNWPLTFGPGTKVDIKR
notes: Tested as an scFv on M13 phage (phagemid pCANTAB 5E)
B9: PI101 phage clone (scFv displayed on M13 phage) (scFv, V domains shown)
VH: EVQLVQSGAEVKKPGASVKVSCKASGYNLATYDINWVRQATGQGLEWMGWMNPNSGYTGYAQKFQGRVTMTRDTSINTAYMELSSLRSEDTAVYYCARTNWVYWYFDLWGRGTLVTVSS
VL: EIVLTQSPATLSLSPGERATLSCRASQSVSSFLAWYQQKPGQAPRLLIYDASNRATGIPARFSGSGSGTDFTLTISSLEPEDFAVYYCQQRSNWPLTFGPGTKVDIKR
notes: as for B8
B10: PI108 phage clone (scFv displayed on M13 phage) (scFv, V domains shown)
VH: QVQLVQSGAEVKKPGASVKVSCKASGYTFTTYDINWVRQATGQGLEWMGWMNPNNGYTGYAQKFQGRVTMTRNTSISTAYMELTSLRSEDTAVYYCARTNWVYWYFDLWGRGTLVTVSS
VL: EIVLTQSPATLSLSPGERATLSCRASQSVSSFLAWYQQKPGQAPRLLIYDASNRATGIPARFSGSGSGTDFTLTISSLEPEDFAVYYCQQRSNWPLTFGPGTKVDIKR
notes: as for B8
B11: PI115 phage clone (scFv displayed on M13 phage) (scFv, V domains shown)
VH: EVQLVQSGAEVKKPGASVKVSCKASGYTFTTYDINWVRQATGQGLEWMGWMNPNNGYTGYAQKFQGRVTMTRNTSISTAYMELSSLRSEDTAVYYCARTNWVYWYFDLWGRGTLVTVSS
VL: EIVLTQSPATLSLSPGERATLSCRASQSVSSFLAWYQQKPGQAPRLLIYDASNRATGIPARFSGSGSGTDFTLTISSLEPEDFAVYYCQQRSNWPLTFGPGTKVDIKR
notes: as for B8
B12: PI118 phage clone (scFv displayed on M13 phage) (scFv, V domains shown)
VH: QVQLVQSGAEVKKPGASVKVSCKASGYNLTTYDINWVRQATGQGLEWMGWMNPNSGYTGYAQKFQGRVTMTRNTSIDTAYMELSNLRSEDTAVYYCARTNWVYWYFDLWGRGTLVTVSS
VL: EIVLTQSPATLSLSPGERATLSCRASQSVSSFLAWYQQKPGQAPRLLIYDASNRATGIPARFSGSGSGTDFTLTISSLEPEDFAVYYCQQRSNWPLTFGPGTKVDIKR
notes: as for B8
B13: PI127 phage clone (scFv displayed on M13 phage) (scFv, V domains shown)
VH: QVQLVQSGAEVKKPGASVKVSCKASGYTFTTYDINWVRQATGQGLEWLGWMNPNNGYTGYAQKFQGRVTMTRNTSIGTAYMELNSLRSEDTAVYYCARTNWVYWYFDLWGRGTLVTVSS
VL: EIVLTQSPATLSLSPGERATLSCRASQSVSSFLAWYQQKPGQAPRLLIYDASNRATGIPARFSGSGSGTDFTLTISSLEPEDFAVYYCQQRSNWPLTFGPGTKVDIKR
notes: as for B8
B14: PI143 phage clone (scFv displayed on M13 phage) (scFv, V domains shown)
VH: QVQLVQSGAEVKKPGASVKVSCKASGYTFTTYDINWVRQATGQGLEWMGWMNPNNGYTGYAQKFQGRVTMTRNTSISTAYMELSSLRSEDTAVYYCARTNWVYWYFDLWGRGTTVTVSS
VL: EIVLTQSPATLSLSPGERATLSCRASQSVSSFLAWYQQKPGQAPRLLIYDASNRATGIPARFSGSGSGTDFTLTISSLEPEDFAVYYCQQRSNWPLTFGPGTKVDIKR
notes: Tested as an scFv on M13 phage (phagemid pCANTAB 5E); also called P1143
B15: PL223 phage clone (scFv displayed on M13 phage) (scFv, V domains shown)
VH: EVQLVQSGAEVKKPGASVKVSCKASGYTFTTYDINWVRQATGQGLEWMGWMNPNNGYTGYAQKFQGRVTMTRNTSISTAYMELSSLRSEDTAVYYCARTNWVYWYFDLWGRGTMVTVSS
VL: EIVLTQSPATLSLSPGERATLSCRASQSVSSFLAWYQQKPGQAPRLLIYDASNRATGIPARFSGSGSGTDFTLTISSLEPEDFAVYYCQQRSNWPLTFGPGTKVDIKR
notes: as for B8
B16: PN7 phage clone (scFv displayed on M13 phage) (scFv, V domains shown)
VH: EVQLVQSGAEVKKPGASVKVSCKASGYTFTTYDINWVRQATGQGLEWMGWMNPNSGYTGYAQKFQGRVTMTRDTSISTAYMELSSLRSEDTAVYYCARTNWESWYFDLWGRGTLVTVSS
VL: EIVLTQSPATLSLSPGERATLSCRASQSVSSFLAWYQQKPGQAPRLLIYDASNRATGIPARFSGSGSGTDFTLTISSLEPEDFAVYYCQQRSNWPLTFGPGTKVDIKR
notes: as for B8
B17: PN170 phage clone (scFv displayed on M13 phage) (scFv, V domains shown)
VH: EVQLVQSGAEVKKPGASVKVSCKASGYTLTSYDINWVRQATGQGLEWMGWMNPNSGYTGYAQKFQDRVTMTRNTAINTAYMELSSLRSEDTAVYYCAREAGYDGIWYFDLWGRGTLVTVSS
VL: EIVLTQSPATLSLSPGERATLSCRASQSVSSFLAWYQQKPGQAPRLLIYDASNRATGIPARFSGSGSGTDFTLTISSLEPEDFAVYYCQQRSNWPLTFGPGTKVDIKR
notes: as for B8
B18: PI105 phage clone (scFv displayed on M13 phage) (scFv, V domains shown)
VH: EVQLVQSGAEVKKPGASVKVSCKASGYTFTTYDINWVRQATGQGLEWLGWMNPNNGYTGYAQKFQGRVTMTRNTSIGTAYMELNSLRSEDTAVYYCARTNWVYWYFDLWGRGTLVTVSS
VL: EIVLTQSPATLSLSPGERATLSCRASQSVSSFLAWYQQKPGQAPRLLIYDASNRATGIPARFSGSGSGTDFTLTISSLEPEDFAVYYCQQRSNWPLTFGPGTKVDIK
notes: Tested as an scFv on M13 phage (phagemid pCANTAB 5E); not shown: scFv linker, domain order, tag and M13 coat-protein fusion of phagemid pCANTAB 5E; copies: 1 + 1
B19: anti-hPSMA monoclonal antibody 2A10 antibody (antibody, human IgG1, V domains shown)
VH: EVQLVQSGAEVKKPGESLKISCKGSGYSFTSNWIGWVRQMPGKGLEWMGIIYPGDSDTRYSPSFQGQVTISADKSISTAYLQWSSLKASDTAMYYCARQTGFLWSSDLWGRGTLVTVSS
VL: IQLTQSPSSLSASVGDRVTITCRASQDISSALAWYQQKPGKAPKLLIYDASSLESGVPSRFSGYGSGTDFTLTINSLQPEDFATYYCQQFNSYPLTFGGGTKVEIK
notes: Expressed from vector N5KG1 (N5KG1_2A10), the human IgG1 type vector
B20: hTRAILR2-hPSMA bispecific antibody E11-CH1-PI134VH antibody (bispecific antibody, IgG4)
heavy: not shown
VL: EIVLTQSPATLSLSPGERATLSCRASQSVSSFLAWYQQKPGQAPRLLIYDASNRATGIPARFSGSGSGTDFTLTISSLEPEDFAVYYCQQRSNWPLTFGPGTKVDIKR
notes: domain: constant region; All four light chains carry E11 VL; also called E11-CH1-PI134 antibody
B21: hTRAILR2-hPSMA bispecific antibody E11-GL-PI134VH antibody (bispecific antibody, IgG4)
heavy: not shown
VL: EIVLTQSPATLSLSPGERATLSCRASQSVSSFLAWYQQKPGQAPRLLIYDASNRATGIPARFSGSGSGTDFTLTISSLEPEDFAVYYCQQRSNWPLTFGPGTKVDIKR
notes: domain: constant region; All four light chains carry E11 VL; also called E11-GL-PI1134VH

These binders were tested against T1, human prostate specific membrane antigen (hPSMA), membrane form on cells (human, UniProt Q04609 1-750) (assay: flow cytometry on hPSMA/PC3 cells against PC3 cells (no data disclosed)).
T1 construct: endogenous on LNCaP clone FGC cells; also called membrane hPSMA
T1 sequence (Q04609 whole entry): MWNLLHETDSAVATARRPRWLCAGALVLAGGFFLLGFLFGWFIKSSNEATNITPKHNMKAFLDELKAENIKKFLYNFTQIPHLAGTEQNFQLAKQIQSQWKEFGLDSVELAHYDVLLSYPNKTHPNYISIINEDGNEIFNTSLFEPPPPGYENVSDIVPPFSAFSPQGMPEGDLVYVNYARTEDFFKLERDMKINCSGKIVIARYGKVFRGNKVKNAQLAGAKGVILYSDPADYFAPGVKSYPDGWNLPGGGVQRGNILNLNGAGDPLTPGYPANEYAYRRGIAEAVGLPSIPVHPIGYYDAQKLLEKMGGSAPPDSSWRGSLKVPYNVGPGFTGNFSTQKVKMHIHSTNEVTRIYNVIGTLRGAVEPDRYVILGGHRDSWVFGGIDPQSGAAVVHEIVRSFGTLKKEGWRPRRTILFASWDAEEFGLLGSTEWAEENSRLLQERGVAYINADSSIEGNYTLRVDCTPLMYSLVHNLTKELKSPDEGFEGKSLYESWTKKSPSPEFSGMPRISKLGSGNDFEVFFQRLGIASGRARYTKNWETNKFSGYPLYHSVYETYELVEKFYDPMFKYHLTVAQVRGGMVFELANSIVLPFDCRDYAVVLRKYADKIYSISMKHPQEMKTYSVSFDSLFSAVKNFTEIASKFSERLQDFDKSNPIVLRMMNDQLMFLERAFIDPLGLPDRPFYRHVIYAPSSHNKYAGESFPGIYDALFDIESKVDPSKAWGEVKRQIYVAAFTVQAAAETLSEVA
B1: binds. B2: binds. B3: binds. B4: binds. B5: binds. B6: binds. B7: binds.

These binders were tested against T2, FLAG-hPSMA, extracellular domain protein of hPSMA with a FLAG-tag at the N-terminus (human, UniProt Q04609 44-750) (assay: phage ELISA, scFv phage clone on immobilized FLAG-PSMA).
T2 construct: also called FLAG-PSMA; soluble hPSMA antigen
T2 sequence (Q04609 other isoform, or with tags, fused parts or gaps): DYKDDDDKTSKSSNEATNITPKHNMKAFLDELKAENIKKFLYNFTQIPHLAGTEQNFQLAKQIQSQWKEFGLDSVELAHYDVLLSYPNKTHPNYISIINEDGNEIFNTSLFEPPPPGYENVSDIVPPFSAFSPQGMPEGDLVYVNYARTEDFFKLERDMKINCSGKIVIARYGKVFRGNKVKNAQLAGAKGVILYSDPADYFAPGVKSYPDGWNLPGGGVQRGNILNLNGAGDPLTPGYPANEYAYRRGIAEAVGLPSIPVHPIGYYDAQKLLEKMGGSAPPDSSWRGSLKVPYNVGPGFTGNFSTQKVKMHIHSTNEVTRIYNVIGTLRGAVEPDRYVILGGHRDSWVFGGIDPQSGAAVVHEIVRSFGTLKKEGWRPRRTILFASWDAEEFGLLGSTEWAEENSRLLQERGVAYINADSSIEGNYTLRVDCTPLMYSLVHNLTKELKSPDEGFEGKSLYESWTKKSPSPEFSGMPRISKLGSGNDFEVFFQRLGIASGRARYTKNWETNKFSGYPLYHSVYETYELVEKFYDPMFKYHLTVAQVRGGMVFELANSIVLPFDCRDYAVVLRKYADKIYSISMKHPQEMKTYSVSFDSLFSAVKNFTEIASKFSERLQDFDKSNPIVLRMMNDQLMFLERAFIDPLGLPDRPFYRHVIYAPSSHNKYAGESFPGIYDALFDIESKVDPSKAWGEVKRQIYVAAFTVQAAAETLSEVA
Description: The concentrated phage was monocloned and clones having the affinity to FLAG-PSMA were selected by ELISA. In ELISA, MAXISORP STARTUBE (manufactured by NUNC) in which the FLAG-PSMA of Example 5 described below was immobilized thereon, and a site not bound by FLAG-PSMA was blocked by using SuperBlock Blockig Buffer (manufactured by Thermo Fisher Scientific Inc.) was used.
Each phage clone was added to each well and allowed to react at room temperature for 30 minutes, and then each well was washed three times with PBS containing 0.1% Tween 20 (hereinafter referred to as PBS-T). Subsequently, a solution in which horseradish peroxidase-labeled anti-M13 antibody (manufactured by GE Healthcare) was diluted 5000 times with PBS-T containing 10% Block Ace (manufactured by Dainippon Pharma Co., Ltd.) was added to each well by 50 μL and incubated at room temperature for 30 minutes.
B8: binds. B9: binds. B10: binds. B11: binds. B12: binds. B13: binds. B14: binds. B15: binds. B16: binds. B17: binds. B18: binds.

The binders below were run against T1, human prostate specific membrane … (assay: flow cytometry on hPSMA/L929 cells (FIG. 2)).
Description: The cells were suspended in a staining buffer [PBS containing 0.1% NaN₃ and 1% FBS] at a concentration of 1×10⁶ cells/mL, and dispensed in a round-bottom 96-well plate (manufactured by Becton Dickinson) by 100 μL/well. After the centrifugation (2000 rpm, 4° C., 2 minutes), each antibody obtained in Example 7 was added to the pellet obtained by removing the supernatant, and suspended, and then left stand at ice temperature for 30 minutes.
After the further centrifugation (2000 rpm, 4° C., 2 minutes), the pellet obtained by removing the supernatant was washed twice with 200 μL/well of the staining buffer. Thereafter, 1 μg/mL of RPE fluorescently labeled mouse anti-human antibody (hinge region) clone 4E3 antibody (manufactured by Southern Bioblot) was added thereto by 50 μL/well and incubated at ice temperature for 30 minutes. After washing twice with the staining buffer, the cells were suspended in 200 μL/well of the staining buffer, and the fluorescence intensity of each cell was measured with the flow cytometer FACSCANTO II (manufactured by Becton Dickinson). The obtained results are illustrated in FIG. 2 and FIG. 3.
hPSMA/L929 cells were stained with anti-TRAILR2 monoclonal antibody E11 antibody, anti-hPSMA monoclonal antibody PI134 antibody, or hTRAILR2-hPSMA bispecific antibody E11-CH1-PI101VH antibody, E11-CH1-PN7VH antibody or E11-CH1-PN170VH antibody. The obtained results are illustrated in FIG. 2.
B19: binds. B20: binds. B21: binds.
